The supplement of paper PMC6755084

B1: F1*; the commonest letter at each place (parent)
chain: GAGACCGCAACTGAAAAGTTGTTATCACTTGTCGTAAGACACTTTGGATGGGTTGAAGTTCTGCACGTAGAAGCAAAAGGC

Variants of: B1
Experiment: fraction ligated after 30 min (ligated reads / total reads); higher = more ligase activity
Conditions: with F1*sub RNA substrate (template-directed ligation), 42 °C
In short: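 Ligase ribozyme variants were made from oligo-pool templates by PCR amplification, T7 transcription and gel purification. After gel separation, ligated and unligated bands were reverse transcribed with barcoded primers and sequenced on a MiSeq, with core bases filtered at quality ≥20. The fraction ligated for each variant was the number of ligated reads divided by total reads.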

Variant	fraction ligated
T44A G55T	0.829
T44G A56C	0.775
T44G A56T	0.809
T44G A56G	0.752
T44G A57C	0.816
T44G A57T	0.857
T44G A57G	0.791
T44C G47C	0.0629
T44C G47T	0.152
T44C G47A	0.772
G47C A57G	0.0599
G47C A57C	0.0685
G47C A57T	0.0788
T44C G55C	0.754
T44C G55A	0.815
T44C G55T	0.779
G47A G50A	0.381
G47A G50C	0.386
G47A G50T	0.657
G46A A56C	0.483
G46A A56G	0.487

Variant	fraction ligated
G46A A56T	0.645
T43A T44A	0.848
T43A T44C	0.836
T43A T44G	0.804
T44G T49G	0.714
T44G T49C	0.183
T44G T49A	0.584
T44G G47A	0.305
T44G G47T	0.0521
T44G G47C	0.0306
T43G G47A	0.802
T43G G47T	0.52
T43G G47C	0.447
T44G G50T	0.344
T44G G50C	0.0717
T44G G50A	0.132
T43C A56C	0.731
T43C A56T	0.755
T43C A56G	0.757
T43A T49A	0.743
T43A T49G	0.797

Variant	fraction ligated
T43A T49C	0.605
T43G G55C	0.247
T43G G55A	0.801
T43G G55T	0.765
T44A A57G	0.812
T44A A57T	0.815
T44A A57C	0.796
T43G A48T	0.668
T43G A48C	0.625
T43G A48G	0.78
G47C A48G	0.122
G47C A48T	0.257
G47C A48C	0.168
T44C T49A	0.737
T44C T49C	0.494
T44C T49G	0.772
T43G A57T	0.799
T43G A57G	0.803
T43G A57C	0.809
T44C A48C	0.783
T44C A48T	0.781

Variant	fraction ligated
T44C A48G	0.821
T45C A48T	0.00623
T45C A48C	0.112
T45C A48G	0.0929
T44C A57C	0.744
T44C A57G	0.802
T44C A57T	0.806
G46T G47C	0.0107
G46T G47A	0.769
G46T G47T	0.0382
T44A T45G	0.187
T44A T45C	0.8
T44A T45A	0.762
G47A G55A	0.775
G47A G55T	0.221
G47A G55C	0.422
T45G G50A	0.0135
T45G G50T	0.0316
T45G G50C	0.0186
G47C G55A	0.11
